The target of assay [1] is human DLL3 on cells (human), Q9NYJ7. Put plainly: cell-based or functional assay.
Assay [2] concerns the target human DLL3 on cells (human) (UniProt Q9NYJ7). Nature of the assay: cell-based or functional assay.

These results are taken from US20140370037A1.

Chain of human DLL3 on cells (human), Q9NYJ7 (Q9NYJ7 27-618): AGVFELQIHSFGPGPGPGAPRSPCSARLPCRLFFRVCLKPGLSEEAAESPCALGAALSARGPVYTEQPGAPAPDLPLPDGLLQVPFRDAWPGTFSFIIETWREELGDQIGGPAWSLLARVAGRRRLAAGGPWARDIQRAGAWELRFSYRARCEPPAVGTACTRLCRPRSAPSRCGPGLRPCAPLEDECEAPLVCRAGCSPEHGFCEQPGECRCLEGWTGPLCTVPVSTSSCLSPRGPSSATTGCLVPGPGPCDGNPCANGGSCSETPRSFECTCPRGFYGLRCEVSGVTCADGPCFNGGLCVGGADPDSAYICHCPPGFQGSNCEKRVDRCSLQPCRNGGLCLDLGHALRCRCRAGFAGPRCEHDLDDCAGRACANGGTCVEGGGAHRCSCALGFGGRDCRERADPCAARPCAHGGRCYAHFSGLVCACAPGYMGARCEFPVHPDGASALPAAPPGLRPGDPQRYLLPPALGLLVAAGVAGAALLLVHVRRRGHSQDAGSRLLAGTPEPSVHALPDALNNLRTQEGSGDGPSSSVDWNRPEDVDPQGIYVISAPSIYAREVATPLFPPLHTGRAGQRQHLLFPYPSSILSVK
Chain of human DLL3 on cells (human) (Q9NYJ7 27-618): as above

B1: hSC16.56-ADC1 (antibody, human IgG1, V domains shown)
VL: EIVMTQSPATLSVSPGERATLSCKASQSVSNDVVWYQQKPGQAPRLLIYYASNRYTGIPARFSGSGSGTEFTLTISSLQSEDFAVYYCQQDYTSPWTFGQGTKLEIKR
VH: QVQLVQSGAEVKKPGASVKVSCKASGYTFTNYGMNWVRQAPGQGLEWMGWINTYTGEPTYADDFKGRVTMTTDTSTSTAYMELRSLRSDDTAVYYCARIGDSSPSDYWGQGTLVTVSS
modifications: here or on the partner: PBD dimer drug-linker ADC1 on reduced Cys residues (positions not stated)
In turn, B1 yielded a dose that killed 50% of naïve KDY66 cells (7 days, Cell Titer Glo) in assay [1] of 13.3 pM.

B2: SC16.34 (antibody, V domains shown)
VH: QIQLVQSGPELKRPGETVKISCKASGYTFTNYGMNWVKQAPGKGLKWMGWINTYTGDPTYADDFKGRFAFSLETSASTAYLQINNLKNEDTATYFCARIGGNSPSDYWGQGTSLTVSS
VL: SIVMTQTPKFLLVSAGDRVTITCKASQSVSNDVAWYQQKPGQSPKLLIYYASNRYSGVPDRFTGSGYGTDFTFTISTVQAEDLAVYFCQQDYSSPWTFGGGTKLEIK
B2: in assay [2], the EC50 of killing of OV26 NTX tumor cells with anti-mouse IgG Fab-saporin was found to be 5.7 pM.

B3: SC16.15 (antibody, V domains shown)
VH: QVQLQQSGAELAKPGASVKMSCKASGYTFTRYWIHWIKQRPGQGLEWIGYINPTTVYTEFNQNFKDKATLTADKSSTTASMQLSSLTSEDSAVYYCARGGSNFFDYWGQGTTLTVSS
VL: DIQMTQSPASLAASVGETVAITCRASENIYYNLAWYQQKQGKSPQLLIYTANSLEDGVPSRFSGSGSGTQYSLKINSMQPEDSATYFCKQAYDVPPTFGGGTKLEIK
B3 had an EC50 of killing of OV26 NTX tumor cells with anti-mouse IgG Fab-saporin in assay [2] of 0.14 pM.

B4: hSC16.15-ADC1 (antibody, human IgG1, V domains shown)
VL: AIQLTQSPSSLSASVGDRVTITCRASENIYYNLAWYQQKPGKAPKLLIYTANSLEDGVPSRFSGSGSGTDFTLTISSLQPEDFATYFCKQAYDVPPTFGGGTKLEIK
VH: QVQLVQSGAEVKKPGASVKVSCKASGYTFTRYWIHWIRQAPGQGLEWMGYINPTTVYTEFNQNFKDRVTMTRDTSTSTVYMELSSLRSEDTAVYYCARGGSNFFDYWGQGTTVTVSS
modifications: here or on the partner: PBD dimer drug-linker ADC1 on reduced Cys residues (positions not stated)
With B4, the concentration that killed 50% of LU37 NTX cells (7 days, Cell Titer Glo) in assay [1] is under 10 ng/mL.
